{"source": "patent US20220296736A1", "about": "“ADMINISTRATION OF THERAPEUTIC AGENTS TO BRAIN AND OTHER CELLS AND TISSUE” (priority 2019, published 2022)", "key": {"[1]": {"assay": "Histological assessment of BV biodistribution and extravasation", "type": "in vivo, SCID mice", "details": "for localisation in brain tissue: one hour after delivery", "description": "For histological evaluation on the safety of OBBBO in the cortex, 7 days after surgery, animals (n=4) were anesthetized and perfused transcardially with 5% sucrose, followed by 4% paraformaldehyde (PFA). The brains were rapidly removed and post-fixed overnight in 4% PFA at 4° C. The brains were cryopreserved in 30% sucrose and 30-μm thick coronal sections were cryosectioned. Immunohistochemistry for anti-GFAP (1:250, Dako) and anti-Iba1 (1:250, Wako) was performed to assess the neuroinflammation. The secondary antibody was goat anti-rabbit (Alexa Fluor-488, 1:200, Molecular Probes). For detecting the biodistribution of infused BV, the mice with OBBBO (n=4) and without OBBBO (n=3) were sacrificed 1 hour after administration. The brains were cryosectioned at 30 μm and the slices were stained with goat anti-human secondary antibody (Alexa Fluor-488, 1:200, Invitrogen). All the fluorescent images were acquired using an inverted microscope (Zeiss, Axio Observer Z1).\nA p-value less than 0.05 was considered significant."}, "[2]": {"assay": "Intravital 2PM visualization of cortical BBBO and drug extravasation", "type": "in vivo, SCID mice", "details": "IA infusion with 25% mannitol; 7 ROIs", "description": "Before microscopy, isoflurane anesthetized mice (n=5) with cranial window and with arterial access as described above were stabilized in a custom-made frame immobilizing their head. The mice were positioned under an epi-fluorescent microscope and a 10× magnification objective was used for capturing images at frequency of 1-2 Hz. Saline solution of 0.001 mM rhodamine (0.58 kDa) was injected using a syringe infusion pump at the rate of 0.15 ml/min over 1 min via the ICA microcatheter to visualize trans-catheter perfusion. When the cortex was not perfused, the cCCA was closed temporarily for 20 s by engaging the weights.\nFor 2PM to visualize OBBBO and drug penetration, mice were placed under a multiphoton microscope (FV1000MPE, Olympus, Tokyo, Japan). A 10× objective (UPlanSApo, 0.40 NA and 3.1 mm working distance) was centered over the cranial window and used to collect time series images of 800×800 pixels (1.59 μm/pixel; 2 μs/pixel; 100 frames) at an estimated depth of 150 um below the cortical surface. Rhodamine (0.002 mM) mixed with BV-FITC (0.01 mM) was injected prior to OBBBO to collect baseline data and optimize cortical perfusion (temporary cCCA closure). Then, 25% mannitol mixed with rhodamine and BV-FITC was delivered at the rate of 0.15 ml/min for 4 mins in total. […]"}, "[3]": {"details": "mouse, in vivo", "description": "(§1) In the first step, we conjugated BV with DFO chelator and characterized resulting conjugate by means of its molecular weight and binding to vascular endothelial growth factor (VEGF).\n(§2) All animal procedures were carried out under protocols approved by the Johns Hopkins Animal Care and Use Committee. Under general anesthesia with 1-2% isoflurane a catheter was placed in internal carotid artery of C3HeB/FeJ (Jackson, stock No. 000658), male, 6-8 weeks old mice, as we described previously (22) and animal was transferred to the PET-CT scanner. […] A CT scan (512 projections) was performed after dynamic scan for anatomical co-registration. PET/CT imaging was repeated around 24 h post infusion. PET data were reconstructed using the two-dimensional ordered subsets-expectation maximization algorithm (2D-OSEM) and corrected for dead time and radioactive decay. Presented whole body images were generated using Amira® (FEI, Hillsboro, Oreg.) and dynamic scans (brain and heart radioactivity accumulation) and radioactivity distribution in different brain regions were analyzed with PMOD 4.3 (PMOD Technologies LLC, Zurich, Switzerland)."}, "[4]": {"details": "mouse, in vivo", "description": "as §1, with “(VEGF). […] Next day PET-CT imaging was repeated and animals were sacrificed to perform ex vivo biodistribution of ^89ZrBVDFO.” for “(VEGF).”\nas §2", "remark": "listed apart in the source"}, "[5]": {"details": "mouse, in vivo, iv; cited from earlier work"}, "[6]": {"details": "human, in vivo, iv; cited from earlier work"}, "[7]": {"assay": "Safety of IA mannitol-induced BBBO in the cortex (MRI and GFAP/IBA1 histology)", "type": "in vivo, SCID mice", "quoted_text": "Once cortical perfusion has been confirmed, 25% mannitol mixed with Gd (50:1) was infused until enhancement indicating BBB breach has been achieved (up to three bolus injections 1-2 min each; interval between infusions is 30 s). For detailed assessment of the BBB status, high resolution T1-weighted scan was collected after mannitol infusion. Three and seven days after OBBBO, the safety of the procedure was evaluated by MRI and then animals were sacrificed for further histological assessment.\nFor histological evaluation on the safety of OBBBO in the cortex, 7 days after surgery, animals (n=4) were anesthetized and perfused transcardially with 5% sucrose, followed by 4% paraformaldehyde (PFA). The brains were rapidly removed and post-fixed overnight in 4% PFA at 4° C. The brains were cryopreserved in 30% sucrose and 30-μm thick coronal sections were cryosectioned. Immunohistochemistry for anti-GFAP (1:250, Dako) and anti-Iba1 (1:250, Wako) was performed to assess the neuroinflammation. The secondary antibody was goat anti-rabbit (Alexa Fluor-488, 1:200, Molecular Probes). […] All the fluorescent images were acquired using an inverted microscope (Zeiss, Axio Observer Z1).\nData is expressed as mean±SD unless otherwise specified. Quantitation of immunohistochemistry was based on relative fluorescence using Image J and analyzed using a paired t-test. The ratio of ipsi-/contralateral was analyzed using an unpaired t-test. The MRI analysis of the change in area of the Gd perfusion territory and Gd-enhancement for each mouse was calculated using a custom-written script in MATLAB and analyzed using a paired t-test. A p-value less than 0.05 was considered significant."}, "recombinant human VEGF-A": {"test_system": "recombinant human VEGF-A", "sequence (P15692 207-320 limits assumed)": "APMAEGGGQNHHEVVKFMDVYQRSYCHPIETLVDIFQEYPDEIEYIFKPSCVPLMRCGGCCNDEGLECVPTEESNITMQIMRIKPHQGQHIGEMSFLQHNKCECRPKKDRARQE", "assay": "Functional binding assay of BV and BVDFO to VEGF (Bevacizumab ELISA)", "details": "unmodified BV versus BVDFO conjugate", "description": "The ELISA assay devoted for assessment of bevacizumab concentration has been used to assess the binding capacity of unmodified BV and BVDFO conjugate. The assay was carried out using Bevacizumab ELISA (ImmunoGuide, Eagle Bioscience) according to the manufacturer protocol. Briefly, 100 μg/mL, 50 μg/mL, 25 μg/mL of BV and BVDFO, as well as the provided standards were diluted 1:1000, and pipetted in 6 repetitions into the wells of the microtiter plate coated with recombinant human VEGF-A. Plate was incubated for 60 min in the room temperature and washed 3× with buffer. Next, horseradish peroxidase (HRP) conjugated anti-human IgG monoclonal antibody was added to each well, and incubated in room temperature for 30 min. Plate was washed 3× with the buffer and ready-to-use TMB substrate solution was added to each well. After 15 min incubation in dark, stop solution was added to each well and the color change from blue to yellow was observed. The absorbance at 450 nm was read using Victor 3 plate reader (Perkin Elmer) within 10 min after addition of the stop solution and expressed as optical density (OD)."}}}
{"molecule": "BV: AVASTIN (BV, Roche), bevacizumab, antibody binding VEGF", "values": [{"measurement": "localisation in brain tissue", "setting": "[1]; IA delivery with OBBBO", "value": "both blood vessels and parenchyma"}, {"measurement": "localisation in brain tissue", "setting": "[1]; IA delivery with intact BBB (BBBI)", "value": "localized within the blood vessels"}, {"measurement": "uptake in ipsilateral vs. contralateral hemisphere (fluorescence intensity)", "setting": "[1]; both groups (BBBI and OBBBO)", "value": "significantly higher uptake"}]}
{"molecule": "rhodamine", "values": [{"measurement": "extravasation upon BBBO compared to BV-FITC (2PM fluorescence intensity)", "setting": "[2]", "value": "earlier onset and higher intensity of extravasation"}]}
{"molecule": "89ZrBVDFO: bevacizumab conjugated with on average 3 molecules of DFO chelator and radiolabeled with 89Zr", "values": [{"measurement": "clearance from the brain compared with 89ZrNB(DFO)2", "setting": "[3]", "value": "slower"}, {"measurement": "radioactivity accumulation in contralateral hemisphere", "setting": "[4]", "value": "no radioactivity accumulation"}, {"measurement": "signal in the contralateral hemisphere", "setting": "[4]", "value": "negligible signal"}, {"measurement": "radioactivity in the entire brain", "setting": "[4]; iv", "value": 2.91, "unit": "% ID/cc"}, {"measurement": "accumulation in the brain and tumors", "setting": "[5]", "value": "no accumulation"}, {"measurement": "uptake in diffuse intrinsic pontine glioma", "setting": "[6]", "value": "some uptake in five out of seven patients"}]}
{"molecule": "OC[C@@H](O)[C@@H](O)[C@H](O)[C@H](O)CO", "note": "[mannitol]", "values": [{"measurement": "brain damage after cortical BBBO induction (MRI and histology)", "setting": "[7]; 3 and 7 days after BBBO", "value": "did not cause brain damage"}, {"measurement": "astrocytic or microglial activation in the BBBO region (GFAP and IBA-1 staining)", "setting": "[7]; 7 days post BBBO, ipsilateral versus contralateral", "value": "no evidence of astrocytic or microglial activation"}, {"measurement": "brain damage after excessive exposure (T2 hyperintensity)", "setting": "[7]; continuous 4 min-infusion", "value": "led to brain damage"}]}
{"molecule": "BVDFO: bevacizumab conjugated with p-SCN-Bn-DFO chelator", "values": [{"measurement": "binding to VEGF", "setting": "recombinant human VEGF-A", "value": "did not affect its targeting properties"}]}
